The results in this text go back to paper PMC2645956.

The assay has as its target Paracoccus denitrificans soluble cytochrome c552 fragment, wild-type (unlabeled) (Paracoccus denitrificans) (UniProt P54820).
UniProt P54820, sequence (P54820 78-176): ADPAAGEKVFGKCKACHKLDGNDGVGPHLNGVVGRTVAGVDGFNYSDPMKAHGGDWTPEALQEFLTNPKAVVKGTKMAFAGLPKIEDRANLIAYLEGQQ

Take “Paracoccus denitrificans soluble cytochrome c1 core fragment, wild-type (domain or fragment)”: the Brønsted parameter ZAZB of the ionic strength dependence of k12, stopped-flow was -4.
